Kd data for 30 sequences are collected here from the Immune Epitope Database (IEDB).

Targets include HLA-A*33:01; HLA-A*11:01; HLA-A*03:01; HLA-A*68:01; HLA-A*31:01.
Holding throughout (assay): IEDB peptide-MHC binding, purified MHC/competitive/radioactivity; filed as Kd, often an IC50 or EC50 that approximates it; ≥ and ≤ were set here for values at or beyond the usual limits of such assays
[1] abbreviates: source organism: Vaccinia virus WR.
Setting [2] is: source organism: SARS coronavirus Tor2.
The mark [3] stands for this setting: source organism: Dengue virus 1 Brazil/97-11/1997.
Setting [4] is: source organism: Dengue virus 3 Martinique/1243/1999.
Setting [5] is: source organism: Dengue virus 4 Philippines/H241/1956.
[6] abbreviates: source organism: Mammarenavirus lassaense.

As usually defined, the Kd is the free concentration of one partner at which half of the binding sites on the other are occupied at equilibrium, for simple one-to-one binding. On to KALMQLTTK, for which the Kd with HLA-A*33:01 (setting [1]) came to 18600 nM; in the test with HLA-A*11:01 (setting [1]), 87.9 nM; in the test with HLA-A*03:01 (setting [1]) it was 181 nM; with HLA-A*68:01 (setting [1]), 5800 nM; with HLA-A*31:01 (setting [1]), 135 nM.
On to STELIRRVR, for which the Kd with HLA-A*33:01 (setting [1]) stood at 1320 nM; in the test with HLA-A*11:01 (setting [1]) it was 127 nM; with HLA-A*03:01 (setting [1]), 13.9 nM; with HLA-A*68:01 (setting [1]), 57.1 nM; with HLA-A*31:01 (setting [1]) it was 91.8 nM.
The like results for TIDKSSPLY were, in that order, at least 77700 nM, 81.7 nM, 65.2 nM, 206 nM and at least 53700 nM.
For DIVNEHDIK, in that order: at least 77700 nM, at least 77900 nM, at least 63200 nM, 3670 nM and at least 77900 nM.
In the case of GVEDTESIER, the Kd with HLA-A*33:01 (setting [1]) is 673 nM; in the test with HLA-A*11:01 (setting [1]), 948 nM; in the test with HLA-A*03:01 (setting [1]), at least 70100 nM; with HLA-A*68:01 (setting [1]), 1840 nM; with HLA-A*31:01 (setting [1]), 1930 nM.
For PFEKEFTSDY, in that order: at least 70000 nM, at least 69800 nM, at least 70100 nM, at least 70200 nM and at least 70000 nM.
On to ALSTNHGHK, for which the Kd is at least 46500 nM with HLA-A*33:01 (setting [2]); 619 nM with HLA-A*11:01 (setting [2]); 30 nM with HLA-A*03:01 (setting [2]); 3050 nM with HLA-A*68:01 (setting [2]); 8930 nM in the test with HLA-A*31:01 (setting [2]).
For VLAYMLFTK, in that order: 1890 nM, 0.894 nM, 0.179 nM, 7.96 nM and 223 nM.
As to IMDLHPGSGK, the Kd with HLA-A*03:01 (setting [3]) turned out to be 60.1 nM.
As to ETLGEKWKR, the Kd with HLA-A*33:01 (setting [3]) was 13.4 nM; with HLA-A*68:01 (setting [3]), 69.2 nM.
As for SAKLQWFVER, the Kd in the test with HLA-A*33:01 (setting [4]) turned out to be 83 nM; in the test with HLA-A*31:01 (setting [4]), 34.7 nM.
Turning to TFKVPHAKR, the Kd with HLA-A*33:01 (setting [5]) is 15.8 nM; with HLA-A*31:01 (setting [5]) it was 1.2 nM.
Consider AARILSEKR, for which the Kd is 1070 nM with HLA-A*33:01 (setting [1]); 6080 nM in the test with HLA-A*11:01 (setting [1]); at least 78000 nM with HLA-A*03:01 (setting [1]); 852 nM with HLA-A*68:01 (setting [1]); 36.3 nM with HLA-A*31:01 (setting [1]).
For the sequence KAIKILIGFR, the Kd with HLA-A*31:01 (source organism: Dengue virus 4 Dominica/814669/1981) amounted to 8.62 nM.
As for SGSCLNNEK, the Kd is at least 59800 nM in the test with HLA-A*33:01 (setting [6]); 556 nM with HLA-A*11:01 (setting [6]); at least 20300 nM in the test with HLA-A*03:01 (setting [6]); 876 nM in the test with HLA-A*68:01 (setting [6]); at least 60900 nM in the test with HLA-A*31:01 (setting [6]).
With QAELTSNCTR, the dissociation constant Kd with HLA-A*33:01 (setting [1]) came to 818 nM; with HLA-A*11:01 (setting [1]), 2430 nM; with HLA-A*03:01 (setting [1]), 2530 nM; in the test with HLA-A*68:01 (setting [1]), 240 nM; with HLA-A*31:01 (setting [1]) it was 801 nM.
With LMSGRGIGK, the Kd in the test with HLA-A*03:01 (source organism: Dengue virus 2 Peru/IQT2913/1996) is 48 nM.
In the case of TTVITPMMR, in the test with HLA-A*68:01 (setting [3]), the Kd came to 34.6 nM.
For the sequence RTYSDPLALR, the Kd with HLA-A*11:01 (setting [3]) was 92.1 nM; with HLA-A*68:01 (setting [3]) it was 18.8 nM; with HLA-A*31:01 (setting [3]), at least 70000 nM.
As to MTHRRPTIEK, the dissociation constant Kd stood at 117 nM with HLA-A*11:01 (setting [4]), 5.64 nM with HLA-A*03:01 (setting [4]) and 196 nM in the test with HLA-A*68:01 (setting [4]).
As to ISSVQLSNNK, the Kd with HLA-A*33:01 (setting [1]) was 3000 nM; with HLA-A*11:01 (setting [1]), 121 nM; with HLA-A*03:01 (setting [1]), 943 nM; with HLA-A*68:01 (setting [1]), 1280 nM; in the test with HLA-A*31:01 (setting [1]), 4420 nM.
On to KLIHEWCCR, for which, in the test with HLA-A*31:01 (setting [4]), the Kd amounted to 39.6 nM.
FSPENKAFK: the Kd in the test with HLA-A*33:01 (setting [1]) came to 3920 nM; with HLA-A*11:01 (setting [1]) it was 5020 nM; with HLA-A*03:01 (setting [1]), 6250 nM; in the test with HLA-A*68:01 (setting [1]), 133 nM; with HLA-A*31:01 (setting [1]), 6710 nM.
For ASLPTTIAK, the dissociation constant (Kd) with HLA-A*33:01 (setting [2]) is at least 40300 nM; in the test with HLA-A*68:01 (setting [2]), 2030 nM; with HLA-A*31:01 (setting [2]), 118 nM.
With SIILANERY, the Kd with HLA-A*33:01 (setting [1]) is at least 77700 nM; with HLA-A*11:01 (setting [1]) it was 233 nM; with HLA-A*03:01 (setting [1]), at least 78000 nM; with HLA-A*68:01 (setting [1]), 607 nM; in the test with HLA-A*31:01 (setting [1]), 19900 nM.
Regarding AAGIIILMEY, the Kd in the test with HLA-A*33:01 (setting [1]) is 7170 nM; in the test with HLA-A*11:01 (setting [1]), 1340 nM; in the test with HLA-A*03:01 (setting [1]) it was 6280 nM; in the test with HLA-A*68:01 (setting [1]), 1200 nM; in the test with HLA-A*31:01 (setting [1]), 1030 nM.
The like results for NSNIIKNKK were, in that order, 4300 nM, 1240 nM, 10200 nM, 241 nM and 1250 nM.
ISQGAGWSLR: the Kd with HLA-A*31:01 (setting [4]) is 8.62 nM.
For YFVCWHTHNY, the Kd was found to be 1820 nM with HLA-A*33:01 (setting [2]); 8120 nM in the test with HLA-A*11:01 (setting [2]); 1520 nM in the test with HLA-A*03:01 (setting [2]); 4860 nM with HLA-A*68:01 (setting [2]); 2330 nM in the test with HLA-A*31:01 (setting [2]).
HAIGTSITQK: the Kd in the test with HLA-A*68:01 (setting [3]) came to 34.5 nM.
